Experimental data published in patent publication US20240034774A1.
Substitutions are numbered along the chain they refer to.

B1: Antibody 1.36.35-1 (antibody, human IgG1, kappa, V domains shown)
VH: QVQLVQSGAEVKKPGASVRVSCKASGYNIRDYFMHWWRQAPGQGLQWVGWINPKTGQPNNPRQFQGRVTMTRHASWDFDTFSAYMDLSRLRSDDTATYFCARQRTDYWDFDVWGQGTMVTVSS
VL: DIQMTQSPSSLSASVGDRVTITCQANGYLNWYQQKPGKAPKLLIYDGSNLETGVPSRFSGSRWGQEYTLTISSLQPEDIATYFCQVYEFVGPGTNLDIKR
B2: Antibody 1.1.104-1 (antibody, human IgG1, kappa, V domains shown)
VH: QVQLLQSGAAVTKPGASVRVSCEASGYNIRDYFIHWWRQAPGQGLQWVGWINPKTGQPNNPRQFQGRVSLTRHASWDFDTFSFYMDLKALRSDDTAVYFCARQRSDYWDFDVWGSGTQVTVSS
VL: DIQMTQSPSSLSASVGDTATITCQANGYLNWYQQRRGKAPKLLIYDGSKLERGVPSRFSGRRWGQEYTLTINNLQPEDIATYFCQVYEFFGPGTRLDLKR
B3: Antibody 1.1.119-1 (antibody, human IgG1, kappa, V domains shown)
VH: B2 VH
VL: B2 VL with T18R, R61S, N72S, N73S

Legend:
Test in all cases: cell-based or functional assay
[1] = biological target: HIV-1 envelope glycoprotein gp120 of virus 92US657 (HIV-1 (subtype B))
[2] = biological target: HIV-1 envelope glycoprotein gp120 of virus BaL (HIV-1 (subtype B))
[3] = biological target: HIV-1 envelope glycoprotein gp120 of virus CHO77 (HIV-1 (subtype B))
[4] = biological target: HIV-1 envelope glycoprotein (gp120) of virus 7051 (HIV-1)
[5] = biological target: HIV-1 envelope glycoprotein (gp120) of virus 92US727 (HIV-1)
[6] = biological target: HIV-1 envelope glycoprotein (gp120) of virus 7015 (HIV-1)
[7] = biological target: HIV-1 envelope glycoprotein (gp120) of virus 8176 (HIV-1)
[8] = biological target: HIV-1 envelope glycoprotein (gp120) of virus VS039 (HIV-1)
[9] = biological target: HIV-1 envelope glycoprotein (gp120) of virus 1012 (HIV-1)
[10] = biological target: HIV-1 envelope glycoprotein (gp120) of virus 1003 (HIV-1)
[11] = biological target: HIV-1 envelope glycoprotein (gp120) of virus REJO (HIV-1)
[12] = biological target: HIV-1 envelope glycoprotein (gp120) of virus VS049 (HIV-1)
[13] = biological target: HIV-1 envelope glycoprotein (gp120) of virus 7141 (HIV-1)
[14] = biological target: HIV-1 envelope glycoprotein (gp120) of virus 7576 (HIV-1)
[15] = biological target: HIV-1 envelope glycoprotein (gp120) of virus 8134 (HIV-1)
[16] = biological target: HIV-1 envelope glycoprotein (gp120) of virus VS017 (HIV-1)
[17] = biological target: HIV-1 envelope glycoprotein (gp120) of virus 92HT593 (HIV-1)
[18] = biological target: HIV-1 envelope glycoprotein (gp120) of virus 7103 (HIV-1)
[19] = biological target: HIV-1 envelope glycoprotein (gp120) of virus 8117 (HIV-1)
[20] = biological target: HIV-1 envelope glycoprotein (gp120) of virus 8106 (HIV-1)
[21] = biological target: HIV-1 envelope glycoprotein (gp120) of virus VS030 (HIV-1)
[22] = biological target: HIV-1 envelope glycoprotein (gp120) of virus VS043 (HIV-1)
[23] = biological target: HIV-1 envelope glycoprotein (gp120) of virus 7552 (HIV-1)
[24] = biological target: HIV-1 envelope glycoprotein (gp120) of virus 8318 (HIV-1)
[25] = biological target: HIV-1 envelope glycoprotein (gp120) of virus VS044 (HIV-1)
[26] = biological target: HIV-1 envelope glycoprotein (gp120) of virus VS001 (HIV-1)
[27] = biological target: HIV-1 envelope glycoprotein (gp120) of virus VS026 (HIV-1)
[28] = biological target: HIV-1 envelope glycoprotein (gp120) of virus 92US657 (HIV-1)
[29] = biological target: HIV-1 envelope glycoprotein (gp120) of virus VS004 (HIV-1)
[30] = biological target: HIV-1 envelope glycoprotein (gp120) of virus 7467 (HIV-1)
[31] = biological target: HIV-1 envelope glycoprotein (gp120) of virus THRO (HIV-1)
[32] = biological target: HIV-1 envelope glycoprotein (gp120) of virus 8110 (HIV-1)
[33] = biological target: HIV-1 envelope glycoprotein (gp120) of virus VS042 (HIV-1)
[34] = biological target: HIV-1 envelope glycoprotein (gp120) of virus 7595 (HIV-1)
[35] = biological target: HIV-1 envelope glycoprotein (gp120) of virus 8320 (HIV-1)
[36] = biological target: HIV-1 envelope glycoprotein (gp120) of virus 1489 (HIV-1)
[37] = biological target: HIV-1 envelope glycoprotein (gp120) of virus CHO77 (HIV-1)
[38] = biological target: HIV-1 envelope glycoprotein (gp120) of virus 302076 (HIV-1)
[39] = biological target: HIV-1 envelope glycoprotein (gp120) of virus 92US712 (HIV-1)
[40] = biological target: HIV-1 envelope glycoprotein (gp120) of virus 1413 (HIV-1)
[41] = biological target: HIV-1 envelope glycoprotein (gp120) of virus VS046 (HIV-1)
[42] = biological target: HIV-1 envelope glycoprotein (gp120) of virus 7714 (HIV-1)

Binder	Virus Neutralization Potency [4]	Virus Neutralization Potency [5]	Virus Neutralization Potency [6]	Virus Neutralization Potency [7]	Virus Neutralization Potency [8]	Virus Neutralization Potency [9]	Virus Neutralization Potency [10]	Virus Neutralization Potency [11]	Virus Neutralization Potency [12]	Virus Neutralization Potency [13]	Virus Neutralization Potency [14]	Virus Neutralization Potency [15]	Virus Neutralization Potency [16]	Virus Neutralization Potency [17]	Virus Neutralization Potency [18]	Virus Neutralization Potency [19]	Virus Neutralization Potency [20]	Virus Neutralization Potency [21]	Virus Neutralization Potency [22]	Virus Neutralization Potency [23]	also measured
B1	–	–	–	–	–	–	–	–	–	–	–	–	–	–	–	–	–	–	–	–	Virus Neutralization Potency (IC50) [1]: 5.37 µg/mL; Virus Neutralization Potency (IC50) [2]: > 20 µg/mL; Virus Neutralization Potency (IC50) [3]: 0.32 µg/mL
B2	1.32 µg/mL	10.6 µg/mL	0.67 µg/mL	0.16 µg/mL	0.1 µg/mL	2.87 µg/mL	1.44 µg/mL	0.02 µg/mL	> 100 µg/mL	6.57 µg/mL	1.1 µg/mL	6.07 µg/mL	2.33 µg/mL	0.28 µg/mL	1.82 µg/mL	1.22 µg/mL	2.8 µg/mL	7.9 µg/mL	1.49 µg/mL	> 80 µg/mL	Virus Neutralization Potency [24]: 0.32 µg/mL; Virus Neutralization Potency [25]: 0.28 µg/mL; Virus Neutralization Potency [26]: 0.34 µg/mL; Virus Neutralization Potency [27]: 0.19 µg/mL; Virus Neutralization Potency [28]: 0.36 µg/mL; Virus Neutralization Potency [29]: 4.8 µg/mL; Virus Neutralization Potency [30]: 0.06 µg/mL; Virus Neutralization Potency [31]: 4.27 µg/mL; Virus Neutralization Potency [32]: 4.19 µg/mL; Virus Neutralization Potency [33]: 2.33 µg/mL; Virus Neutralization Potency [34]: 8.47 µg/mL; Virus Neutralization Potency [35]: 4.34 µg/mL; Virus Neutralization Potency [36]: 0.28 µg/mL; Virus Neutralization Potency [37]: 0.03 µg/mL; Virus Neutralization Potency [38]: 0.1 µg/mL; Virus Neutralization Potency [39]: 0.04 µg/mL; Virus Neutralization Potency [40]: 4.34 µg/mL; Virus Neutralization Potency [41]: 0.03 µg/mL
B3	1.89 µg/mL	43.7 µg/mL	1.08 µg/mL	0.27 µg/mL	0.13 µg/mL	1.06 µg/mL	0.91 µg/mL	0.03 µg/mL	> 100 µg/mL	4.98 µg/mL	0.6 µg/mL	3.44 µg/mL	2.75 µg/mL	0.15 µg/mL	1.16 µg/mL	1.66 µg/mL	1.44 µg/mL	4.96 µg/mL	0.81 µg/mL	> 80 µg/mL	Virus Neutralization Potency [24]: 0.42 µg/mL; Virus Neutralization Potency [25]: 0.2 µg/mL; Virus Neutralization Potency [26]: 0.37 µg/mL; Virus Neutralization Potency [27]: 0.14 µg/mL; Virus Neutralization Potency [28]: 0.3 µg/mL; Virus Neutralization Potency [29]: 6.02 µg/mL; Virus Neutralization Potency [30]: 0.19 µg/mL; Virus Neutralization Potency [31]: 2.8 µg/mL; Virus Neutralization Potency [32]: 2.37 µg/mL; Virus Neutralization Potency [33]: 2.19 µg/mL; Virus Neutralization Potency [34]: 3.07 µg/mL; Virus Neutralization Potency [35]: 1.47 µg/mL; Virus Neutralization Potency [36]: 0.17 µg/mL; Virus Neutralization Potency [37]: 0.02 µg/mL; Virus Neutralization Potency [38]: 0.08 µg/mL; Virus Neutralization Potency [39]: 0.03 µg/mL; Virus Neutralization Potency [40]: 4.52 µg/mL; Virus Neutralization Potency [41]: 0.03 µg/mL; Virus Neutralization Potency [42]: 1.93 µg/mL
